Biological target: T1, PD-L1 on PD-L1-positive target cell lines DU-145 and U-251 (human, UniProt Q9NZQ7 19-290)
T1 construct: also called Programmed death ligand 1; CD274
Test: flow cytometry on DU-145 and U-251 cells, shown as % binding of max over time at 4 C or 37 C
Procedure: Data is shown as % binding of max by normalizing the obtained MFI to the highest MFI measured. […] Data is shown as mean ± SD of one experiment measured in technical triplicates.
Subsequently, stained target cells were incubated for indicated time points at either 4° C. or 37° C. Binding of PD-L1-specific TMs was analyzed via flow cytometry using an PE-labeled α-His Ab.

T1 sequence (Q9NZQ7 19-290): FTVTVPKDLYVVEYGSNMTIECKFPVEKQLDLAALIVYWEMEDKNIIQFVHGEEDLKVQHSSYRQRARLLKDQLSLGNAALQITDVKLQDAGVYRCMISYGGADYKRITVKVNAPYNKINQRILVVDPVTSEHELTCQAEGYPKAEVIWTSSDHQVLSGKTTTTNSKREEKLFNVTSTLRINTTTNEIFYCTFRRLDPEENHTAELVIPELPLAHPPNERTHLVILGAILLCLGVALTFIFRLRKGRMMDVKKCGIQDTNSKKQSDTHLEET

binding result: binds
B1: TM-PD-L1-scFv5 (scFv)
scFv: GQVQLVQSGAEVKKPGASVKVSCKASGYTFTDYGFSWVRQAPGQGLEWMGWITAYNGNTNYAQKLQGRVTMTTDTSTSTVYMELRSLRSDDTAVYYCARDYFYGMDVWGQGTTVTVSSGGGGSGGGGSGGGGSEIVLTQSPATLSLSPGERATLSCRASQSVSSYLVWYQQKPGQAPRLLIYDASNRATGIPARFSGSGSGTDFTLTISSLEPEDFAVYYCQQRSNWPRTFGQGTKVEIKAAAKPLPEVTDEYARGGPGGGGSHHHHHHHH
notes: also called TMPD-L1v5
